In patent US20030129724A1 (Harvard, published 2003):

T1: HDAC3 from calyculin A-treated cells, O15379
T1 chain: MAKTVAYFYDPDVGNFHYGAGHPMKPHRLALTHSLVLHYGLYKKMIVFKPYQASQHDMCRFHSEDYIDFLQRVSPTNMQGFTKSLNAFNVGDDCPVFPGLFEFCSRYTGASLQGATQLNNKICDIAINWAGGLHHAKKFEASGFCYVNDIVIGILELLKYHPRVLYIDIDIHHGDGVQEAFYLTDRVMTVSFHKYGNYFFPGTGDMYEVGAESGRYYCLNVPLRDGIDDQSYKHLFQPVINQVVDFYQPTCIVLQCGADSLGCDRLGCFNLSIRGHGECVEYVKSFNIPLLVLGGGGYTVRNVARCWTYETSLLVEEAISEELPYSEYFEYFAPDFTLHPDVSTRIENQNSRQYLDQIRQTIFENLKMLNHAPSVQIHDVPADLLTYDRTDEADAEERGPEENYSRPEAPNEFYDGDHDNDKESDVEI

T2: mSin3A (UniProt Q96ST3 1-1273)
T2 construct: Endogenous protein detected by Western blot in immunoprecipitates; also called co-repressor mSin3A
T2 sequence (looked up): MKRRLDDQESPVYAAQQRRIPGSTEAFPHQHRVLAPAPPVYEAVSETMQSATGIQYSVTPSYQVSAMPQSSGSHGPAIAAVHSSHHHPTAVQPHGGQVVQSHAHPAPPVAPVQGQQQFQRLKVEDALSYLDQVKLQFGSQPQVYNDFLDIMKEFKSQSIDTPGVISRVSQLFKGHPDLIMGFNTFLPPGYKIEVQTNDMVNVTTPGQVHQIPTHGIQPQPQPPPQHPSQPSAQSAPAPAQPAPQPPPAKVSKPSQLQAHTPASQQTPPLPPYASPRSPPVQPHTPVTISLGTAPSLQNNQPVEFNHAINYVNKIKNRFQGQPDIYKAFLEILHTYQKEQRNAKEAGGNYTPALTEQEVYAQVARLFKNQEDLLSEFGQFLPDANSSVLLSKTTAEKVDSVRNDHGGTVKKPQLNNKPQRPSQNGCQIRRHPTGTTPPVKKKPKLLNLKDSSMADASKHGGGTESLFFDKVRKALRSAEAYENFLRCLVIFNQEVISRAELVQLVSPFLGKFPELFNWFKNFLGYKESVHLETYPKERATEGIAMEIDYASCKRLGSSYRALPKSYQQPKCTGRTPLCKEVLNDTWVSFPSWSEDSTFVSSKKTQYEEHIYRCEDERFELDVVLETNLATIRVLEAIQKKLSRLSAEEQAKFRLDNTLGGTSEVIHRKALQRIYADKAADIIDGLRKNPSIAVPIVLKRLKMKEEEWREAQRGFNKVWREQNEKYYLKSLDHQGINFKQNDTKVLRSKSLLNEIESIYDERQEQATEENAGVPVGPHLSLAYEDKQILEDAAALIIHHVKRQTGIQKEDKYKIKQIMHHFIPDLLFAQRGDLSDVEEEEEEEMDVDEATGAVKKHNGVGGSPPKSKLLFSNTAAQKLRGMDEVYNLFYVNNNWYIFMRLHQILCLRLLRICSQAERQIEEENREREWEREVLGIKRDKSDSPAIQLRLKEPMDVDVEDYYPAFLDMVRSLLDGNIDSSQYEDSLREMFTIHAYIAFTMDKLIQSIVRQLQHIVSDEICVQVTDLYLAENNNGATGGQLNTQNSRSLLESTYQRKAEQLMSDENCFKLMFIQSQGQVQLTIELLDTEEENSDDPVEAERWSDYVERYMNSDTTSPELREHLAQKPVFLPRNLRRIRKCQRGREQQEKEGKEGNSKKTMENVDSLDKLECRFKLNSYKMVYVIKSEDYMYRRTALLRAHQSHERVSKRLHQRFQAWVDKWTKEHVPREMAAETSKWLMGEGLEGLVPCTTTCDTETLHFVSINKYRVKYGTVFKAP

T3: Recombinant FLAG-epitope tagged HDAC6 (human, UniProt Q9UBN7 1-1215)
T3 construct: Full length ORF with C-terminal FLAG tag in pBJ5, expressed in TAg Jurkat cells; also called HDAC6-FLAG; HD6
T3 sequence: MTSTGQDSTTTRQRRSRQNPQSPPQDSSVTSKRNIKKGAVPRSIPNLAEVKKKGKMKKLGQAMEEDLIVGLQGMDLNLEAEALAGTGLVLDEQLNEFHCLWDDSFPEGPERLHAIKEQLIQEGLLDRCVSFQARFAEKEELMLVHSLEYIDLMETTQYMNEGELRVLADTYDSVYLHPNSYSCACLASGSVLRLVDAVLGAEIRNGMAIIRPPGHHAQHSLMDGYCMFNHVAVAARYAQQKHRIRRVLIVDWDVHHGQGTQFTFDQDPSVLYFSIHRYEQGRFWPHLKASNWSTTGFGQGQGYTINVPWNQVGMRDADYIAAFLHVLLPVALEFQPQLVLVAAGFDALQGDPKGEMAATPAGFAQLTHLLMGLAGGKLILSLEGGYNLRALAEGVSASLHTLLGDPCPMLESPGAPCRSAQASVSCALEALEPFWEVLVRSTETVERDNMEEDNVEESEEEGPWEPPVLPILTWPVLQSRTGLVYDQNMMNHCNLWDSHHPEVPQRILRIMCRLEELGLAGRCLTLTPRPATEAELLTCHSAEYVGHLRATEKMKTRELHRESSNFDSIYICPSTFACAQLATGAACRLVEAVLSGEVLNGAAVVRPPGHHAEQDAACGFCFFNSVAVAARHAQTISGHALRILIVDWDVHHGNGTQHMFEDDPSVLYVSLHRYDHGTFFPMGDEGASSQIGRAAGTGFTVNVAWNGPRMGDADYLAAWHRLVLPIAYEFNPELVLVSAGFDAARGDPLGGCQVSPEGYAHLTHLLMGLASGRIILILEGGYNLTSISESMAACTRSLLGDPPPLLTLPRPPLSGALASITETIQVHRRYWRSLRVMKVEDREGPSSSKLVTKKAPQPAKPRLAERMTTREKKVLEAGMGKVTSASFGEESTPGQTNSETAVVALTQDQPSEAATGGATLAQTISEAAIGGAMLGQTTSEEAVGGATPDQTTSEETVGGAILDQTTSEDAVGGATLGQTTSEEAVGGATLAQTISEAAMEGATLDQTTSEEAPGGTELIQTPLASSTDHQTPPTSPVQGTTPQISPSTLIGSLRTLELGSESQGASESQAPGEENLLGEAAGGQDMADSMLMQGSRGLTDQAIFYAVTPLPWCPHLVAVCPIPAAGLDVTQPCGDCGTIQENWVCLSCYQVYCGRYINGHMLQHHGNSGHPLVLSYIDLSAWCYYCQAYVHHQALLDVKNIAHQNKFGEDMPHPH

B1: Recombinant FLAG-epitope tagged HDAC4 (enzyme, not shown: small tags and cut ends)
chain: MSSQSHPDGLSGRDQPVELLNPARVNHMPSTVDVATALPLQVAPSAVPMDLRLDHQFSLPVAEPALREQQLQQELLALKQKQQIQRQILIAEFQRQHEQLSRQHEAQLHEHIKQQQEMLAMKHQQELLEHQRKLERHRQEQELEKQHREQKLQQLKNKEKGKESAVASTEVKMKLQEFVLNKKKALAHRNLNHCISSDPRYWYGKTQHSSLDQSSPPQSGVSTSYNHPVLGMYDAKDDFPLRKTASEPNLKLRSRLKQKVAERRSSPLLRRKDGPVVTALKKRPLDVTDSACSSAPGSGPSSPNNSSGSVSAENGIAPAVPSIPAETSLAHRLVAREGSAAPLPLYTSPSLPNITLGLPATGPSAGTAGQQDTERLTLPALQQRLSLFPGTHLTPYLSTSPLERDGGAAHSPLLQHMVLLEQPPAQAPLVTGLGALPLHAQSLVGADRVSPSIHKLRQHRPLGRTQSAPLPQNAQALQHLVIQQQHQQFLEKHKQQFQQQQLQMNKIIPKPSEPARQPESHPEETEEELREHQALLDEPYLDRLPGQKEAHAQAGVQVKQEPIESDEEEAEPPREVEPGQRQPSEQELLFRQQALLLEQQRIHQLRNYQASMEAAGIPVSFGGHRPLSRAQSSPASATFPVSVQEPPTKPRFTTGLVYDTLMLKHQCTCGSSSSHPEHAGRIQSIWSRLQETGLRGKCECIRGRKATLEELQTVHSEAHTLLYGTNPLNRQKLDSKKLLGSLASVFVRLPCGGVGVDSDTIWNEVHSAGAARLAVGCVVELVFKVATGELKNGFAVVRPPGHHAEESTPMGFCYFNSVAVAAKLLQQRLSVSKILIVDWDVHHGNGTQQAFYSDPSVLYMSLHRYDDGNFFPGSGAPDEVGTGPGVGFNVNMAFTGGLDPPMGDAEYLAAFRTVVMPIASEFAPDVVLVSSGFDAVEGHPTPLGGYNLSARCFGYLTKQLMGLAGGRIVLALEGGHDLTAICDASEACVSALLGNELDPLPEKVLQQRPNANAVRSMEKVMEIHSKYWRCLQRTTSTAGRSLIEAQTCENEEAETVTAMASLSVGVKPAEKRPDEEPMEEEPPL
notes: Complete HDAC4 ORF with C-terminal FLAG tag in pBJ5, transiently expressed in TAg Jurkat cells (untreated) and immunoprecipitated with anti-FLAG agarose; also called HDAC4-FLAG; HDAC4-F
B2: MTA (other, UniProt Q13330 1-715, looked up)
chain: MAANMYRVGDYVYFENSSSNPYLIRRIEELNKTANGNVEAKVVCFYRRRDISSTLIALADKHATLSVCYKAGPGADNGEEGEIEEEMENPEMVDLPEKLKHQLRHRELFLSRQLESLPATHIRGKCSVTLLNETESLKSYLEREDFFFYSLVYDPQQKTLLADKGEIRVGNRYQADITDLLKEGEEDGRDQSRLETQVWEAHNPLTDKQIDQFLVVARSVGTFARALDCSSSVRQPSLHMSAAAASRDITLFHAMDTLHKNIYDISKAISALVPQGGPVLCRDEMEEWSASEANLFEEALEKYGKDFTDIQQDFLPWKSLTSIIEYYYMWKTTDRYVQQKRLKAAEAESKLKQVYIPNYNKPNPNQISVNNVKAGVVNGTGAPGQSPGAGRACESCYTTQSYQWYSWGPPNMQCRLCASCWTYWKKYGGLKMPTRLDGERPGPNRSNMSPHGLPARSSGSPKFAMKTRQAFYLHTTKLTRIARRLCREILRPWHAARHPYLPINSAAIKAECTARLPEASQSPLVLKQAVRKPLEAVLRYLETHPRPPKPDPVKSVSSVLSSLTPAKVAPVINNGSPTILGKRSYEQHNGVDGNMKKRLLMPSRGLANHGQARHMGPSRNLLLNGKSYPTKVRLIRGGSLPPVKRRRMNWIDAPDDVFYMATEETRKIRKLLSSSETKRAARRPYKPIALRQSQALPPRPPPPAPVNDEPIVIED
notes: also called metastasis-associated factors (MTA)

Assays:
[1] = biological target: T1, HDAC3 from calyculin A-treated cells, …
CHD4 = biological target: T4, CHD4 (UniProt Q14839 1-1912, limits assumed); experiment: anti-FLAG co-immunoprecipitation from TAg Jurkat cells, Western blot
T4 construct: Endogenous protein detected by Western blot in immunoprecipitates; also called CHD chromodomain protein
T4 sequence (Q14839 whole entry): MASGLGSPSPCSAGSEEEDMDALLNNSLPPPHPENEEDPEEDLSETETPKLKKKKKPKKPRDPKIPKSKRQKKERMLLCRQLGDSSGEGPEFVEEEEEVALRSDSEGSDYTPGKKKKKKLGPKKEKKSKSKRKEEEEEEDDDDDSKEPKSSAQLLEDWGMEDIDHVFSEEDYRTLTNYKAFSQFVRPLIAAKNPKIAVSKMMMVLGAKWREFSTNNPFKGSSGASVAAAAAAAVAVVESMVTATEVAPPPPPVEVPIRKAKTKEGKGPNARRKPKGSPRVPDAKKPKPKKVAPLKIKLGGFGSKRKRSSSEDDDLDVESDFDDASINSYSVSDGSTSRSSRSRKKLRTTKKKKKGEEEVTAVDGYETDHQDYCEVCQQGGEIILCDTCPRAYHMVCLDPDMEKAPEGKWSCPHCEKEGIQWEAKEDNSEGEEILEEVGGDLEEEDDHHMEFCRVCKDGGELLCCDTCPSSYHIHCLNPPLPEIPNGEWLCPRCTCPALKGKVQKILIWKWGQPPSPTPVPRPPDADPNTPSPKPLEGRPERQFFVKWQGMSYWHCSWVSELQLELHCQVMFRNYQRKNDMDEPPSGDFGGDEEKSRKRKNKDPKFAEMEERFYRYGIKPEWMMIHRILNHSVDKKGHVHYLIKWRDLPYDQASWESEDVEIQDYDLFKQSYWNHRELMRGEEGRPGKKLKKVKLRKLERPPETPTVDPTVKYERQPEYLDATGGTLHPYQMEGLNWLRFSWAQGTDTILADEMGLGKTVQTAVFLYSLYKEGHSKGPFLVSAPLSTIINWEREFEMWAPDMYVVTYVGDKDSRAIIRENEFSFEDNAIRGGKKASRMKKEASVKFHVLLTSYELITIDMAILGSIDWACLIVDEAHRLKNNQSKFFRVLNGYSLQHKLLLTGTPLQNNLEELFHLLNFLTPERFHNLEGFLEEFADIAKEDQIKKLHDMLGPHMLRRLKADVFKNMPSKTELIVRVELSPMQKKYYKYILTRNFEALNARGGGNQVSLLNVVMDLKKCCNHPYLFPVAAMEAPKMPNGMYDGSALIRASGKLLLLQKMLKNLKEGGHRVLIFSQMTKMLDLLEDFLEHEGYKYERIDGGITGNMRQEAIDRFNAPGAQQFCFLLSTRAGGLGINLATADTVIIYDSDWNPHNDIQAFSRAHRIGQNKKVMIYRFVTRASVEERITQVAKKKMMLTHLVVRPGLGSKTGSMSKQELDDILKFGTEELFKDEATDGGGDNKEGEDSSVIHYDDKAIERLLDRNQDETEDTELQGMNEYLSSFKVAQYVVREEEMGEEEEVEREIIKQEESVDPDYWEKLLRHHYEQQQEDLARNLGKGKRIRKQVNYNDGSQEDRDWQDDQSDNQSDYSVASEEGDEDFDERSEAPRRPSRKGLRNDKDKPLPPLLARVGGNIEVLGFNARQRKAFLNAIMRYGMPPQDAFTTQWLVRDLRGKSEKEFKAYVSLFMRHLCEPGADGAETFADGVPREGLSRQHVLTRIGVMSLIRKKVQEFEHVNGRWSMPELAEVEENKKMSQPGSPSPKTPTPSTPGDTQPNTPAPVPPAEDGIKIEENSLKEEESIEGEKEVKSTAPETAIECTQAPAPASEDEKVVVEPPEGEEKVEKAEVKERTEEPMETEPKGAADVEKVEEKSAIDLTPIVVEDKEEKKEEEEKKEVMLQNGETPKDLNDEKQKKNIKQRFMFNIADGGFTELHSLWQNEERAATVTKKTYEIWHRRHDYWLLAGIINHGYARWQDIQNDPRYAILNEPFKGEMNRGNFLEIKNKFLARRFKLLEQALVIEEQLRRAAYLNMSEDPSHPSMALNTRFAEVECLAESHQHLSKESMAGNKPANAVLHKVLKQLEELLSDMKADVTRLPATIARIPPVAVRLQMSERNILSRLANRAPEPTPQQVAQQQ

mSin3A = biological target: T2, mSin3A; experiment: anti-FLAG co-immunoprecipitation from TAg Jurkat cells, Western blot; an unexplained band of lower molecular weight was seen in the mSin3A blot
Text: Immunoprecipitates were probed with -CHD4, -mSin3A, -MTA, -RbAp48, -HDAC1, and -HDAC3 antibodies (FIG. 5B).

[2] = biological target: B1; experiment: anti-FLAG co-immunoprecipitation from TAg Jurkat cells, Western blot
[3] = biological target: T3, Recombinant FLAG-epitope tagged HDAC6; experiment: as above

binding result (CHD4) | binding result (mSin3A) | binding result [2] | binding result [3] | Binder | immunoprecipitated HDAC activity (release of 3H-acetic acid) [1]
no binding | no binding | – | – | B1 | dramatic reduction in immunoprecipitated HDAC activity
– | – | no binding | no binding | B2 | –
